Values of other authors as cited in patent US5780279A, “Method of selection of proteolytic cleavage sites by directed evolution and phagemid display” (Genentech, Inc., priority 1995, dated 1998).
Where no end group is shown, it is not given here.

Molecular target: A64SAL subtilisin (Bacillus amyloliquefaciens, UniProt P00782, E263S/G276A/H171A/S131C/Y324L)
Details: Carter et al (1989)

Chain of A64SAL subtilisin (P00782 108-382 S131C/H171A/E263S/G276A/Y324L): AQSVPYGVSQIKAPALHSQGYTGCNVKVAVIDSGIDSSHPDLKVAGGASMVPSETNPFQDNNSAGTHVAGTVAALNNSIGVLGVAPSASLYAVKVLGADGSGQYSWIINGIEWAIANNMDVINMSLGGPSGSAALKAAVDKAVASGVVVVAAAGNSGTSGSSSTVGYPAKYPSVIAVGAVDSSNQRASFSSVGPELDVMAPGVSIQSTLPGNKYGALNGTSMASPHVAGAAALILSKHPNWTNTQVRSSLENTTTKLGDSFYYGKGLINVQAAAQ

AAHYTRQ
substrate quality for A64SAL subtilisin: good substrate
